Measurements reported in patent US20070161067A1 (STANFORD UNIVERSITY, published 2007).
Values belong to the molecule of their own block, whether it stands above or below them.

What was measured:
Test in all cases: cell-based or functional assay
[1] = target: Cfluc-FKBP12, split site at amino acid position 420 of SEQ ID NO: 2 (Photinus pyralis) (UniProt P62942)
[2] = target: Cfluc-FKBP12, split site at amino acid position 455 of SEQ ID NO: 2 (Photinus pyralis) (UniProt P62942)
[3] = target: Cfluc-FKBP12, split site at amino acid position 437 of SEQ ID NO: 2 (Photinus pyralis) (UniProt P62942)
Cfluc-FKBP12, split site at amino acid position 437 of SEQ ID NO: 2 (Photinus pyralis), sequence (P62942 other isoform, or with tags, fused parts or gaps limits assumed): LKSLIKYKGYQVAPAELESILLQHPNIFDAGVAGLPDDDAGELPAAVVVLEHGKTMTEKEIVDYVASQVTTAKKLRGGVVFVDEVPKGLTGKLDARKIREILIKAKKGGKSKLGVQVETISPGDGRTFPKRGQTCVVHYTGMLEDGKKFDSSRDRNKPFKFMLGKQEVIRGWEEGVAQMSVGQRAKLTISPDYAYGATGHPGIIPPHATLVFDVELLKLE

[4] = target: Cfluc-FKBP12, split site at amino acid position 445 of SEQ ID NO: 2 (Photinus pyralis) (UniProt P62942)
Cfluc-FKBP12, split site at amino acid position 445 of SEQ ID NO: 2 (Photinus pyralis), sequence (P62942 other isoform, or with tags, fused parts or gaps limits assumed): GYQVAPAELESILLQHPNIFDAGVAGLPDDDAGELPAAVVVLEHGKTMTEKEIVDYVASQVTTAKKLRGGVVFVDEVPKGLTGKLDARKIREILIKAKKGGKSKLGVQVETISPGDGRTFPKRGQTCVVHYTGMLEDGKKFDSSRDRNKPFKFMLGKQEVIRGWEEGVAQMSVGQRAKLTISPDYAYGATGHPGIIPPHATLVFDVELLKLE

[5] = target: T1, Cfluc (500-550 of SEQ ID NO: 2) (Photinus pyralis, UniProt P08659 501-550 = luciferase)
T1 chain: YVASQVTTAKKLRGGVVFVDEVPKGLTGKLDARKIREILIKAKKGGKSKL

[6] = target: Cfluc (300-550 of SEQ ID NO: 2) (Photinus pyralis, UniProt P08659 300-550 = luciferase)
[7] = target: Cfluc (437-550 of SEQ ID NO: 2) (Photinus pyralis, UniProt P08659 438-550 = luciferase)
[8] = target: Cfluc (265-550 of SEQ ID NO: 2) (Photinus pyralis, UniProt P08659 265-550 = luciferase)
[9] = target: Cfluc (445-550 of SEQ ID NO: 2) (Photinus pyralis, UniProt P08659 446-550 = luciferase)
[10] = target: Cfluc (245-550 of SEQ ID NO: 2) (Photinus pyralis, UniProt P08659 245-550 = luciferase)

Cfluc-FKBP12, split site at amino acid position 420 of SEQ ID NO: 2 (Photinus pyralis), sequence (P62942 other isoform, or with tags, fused parts or gaps limits assumed): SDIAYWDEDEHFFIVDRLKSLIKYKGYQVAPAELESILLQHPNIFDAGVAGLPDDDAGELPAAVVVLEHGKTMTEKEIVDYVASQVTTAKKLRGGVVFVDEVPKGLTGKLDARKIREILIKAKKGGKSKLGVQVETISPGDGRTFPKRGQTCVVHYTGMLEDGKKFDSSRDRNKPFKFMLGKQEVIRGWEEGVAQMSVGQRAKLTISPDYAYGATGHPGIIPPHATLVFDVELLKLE
Cfluc-FKBP12, split site at amino acid position 455 of SEQ ID NO: 2 (Photinus pyralis), sequence (P62942 other isoform, or with tags, fused parts or gaps limits assumed): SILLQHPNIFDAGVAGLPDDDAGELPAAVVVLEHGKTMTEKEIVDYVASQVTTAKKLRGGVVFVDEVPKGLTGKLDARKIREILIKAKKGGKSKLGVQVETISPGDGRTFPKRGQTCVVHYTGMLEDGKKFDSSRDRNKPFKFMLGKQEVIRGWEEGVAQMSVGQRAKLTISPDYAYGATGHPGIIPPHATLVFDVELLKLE

Molecule: FRB-Nfluc, split site at amino acid position 420 of SEQ ID NO: 2 (from UniProt P42345 2024-2113)
firefly luciferase signal upon exposure to rapamycin, fold over the cells not exposed to rapamycin (co-transfected 293T cells) [1]: 10 fold

Molecule: FRB-Nfluc, split site at amino acid position 455 of SEQ ID NO: 2 (from UniProt P42345 2024-2113)
firefly luciferase signal upon exposure to rapamycin, fold over the cells not exposed to rapamycin (co-transfected 293T cells) [2]: 30 fold

Molecule: FRB-Nfluc, split site at amino acid position 437 of SEQ ID NO: 2 (from UniProt P42345 2024-2113)
firefly luciferase signal upon exposure to rapamycin, fold over the cells not exposed to rapamycin (co-transfected 293T cells) [3]: 40 fold

The next lines start with the values.

firefly luciferase signal upon exposure to rapamycin, fold over the cells not exposed to rapamycin (co-transfected 293T cells) [4]: 350 fold
Molecule: FRB-Nfluc, split site at amino acid position 445 of SEQ ID NO: 2 (from UniProt P42345 2024-2113)

average of photon max across six animals, 72 h [5]: 0.3 P/cm^2/sec/sr
average of photon max across six animals, 72 h [6]: 1.9 P/cm^2/sec/sr
bioluminescence signal of implanted co-transfected 293T cells in living mice, 24 h [6]: 0.3 P/cm^2/sec/sr
average of photon max across six animals, 72 h [7]: 2.1 P/cm^2/sec/sr
average of photon max across six animals, 72 h [8]: 1.8 P/cm^2/sec/sr
bioluminescence signal of implanted co-transfected 293T cells in living mice, 24 h [8]: 0.3 P/cm^2/sec/sr
average of photon max across six animals, 72 h [9]: 0.7 P/cm^2/sec/sr
average of photon max across six animals, 72 h [10]: 1.1 P/cm^2/sec/sr
bioluminescence signal of implanted co-transfected 293T cells in living mice, 24 h [10]: 0.3 P/cm^2/sec/sr
luciferase signal against the combination Nfluc 1-475 / Cfluc 265-550 (cell culture and animal study) [10]: 2 fold less
B1: Nfluc (1-475 of SEQ ID NO: 2) (other)
chain: MEDAKNIKKGPAPFYPLEDGTAGEQLHKAMKRYALVPGTIAFTDAHIEVNITYAEYFEMSVRLAEAMKRYGLNTNHRIVVCSENSLQFFMPVLGALFIGVAVAPANDIYNERELLNSMNISQPTVVFVSKKGLQKILNVQKKLPIIQKIIIMDSKTDYQGFQSMYTFVTSHLPPGFNEYDFVPESFDRDKTIALIMNSSGSTGLPKGVALPHRTACVRFSHARDPIFGNQIIPDTAILSVVPFHHGFGMFTTLGYLICGFRVVLMYRFEEELFLRSLQDYKIQSALLVPTLFSFFAKSTLIDKYDLSNLHEIASGGAPLSKEVGEAVAKRFHLPGIRQGYGLTETTSAILITPEGDDKPGGVGKVVPFFEAKVVDLDTGKTLGVNQRGELCVRGPMIMSGYVNNPEATNALIDKDGWLHSDIAYWDEDEHFFIVDRLKSLIKYKGYQVAPAELESILLQHPNIFDAGVAGLPDDD
